From patent US9175313B2, “Three-dimensional structure of isoprene synthase and its use thereof for generating variants” (Danisco US Inc., priority 2009, dated 2015) come the findings set out here.

To fix the notation:
B1: D345R: P. alba IspS variant (protein, UniProt Q50L36 38-595, looked up, variant D345R)
Isoprene synthase, …: CSVSTENVSFTETETEARRSANYEPNSWDYDYLLSSDTDESIEVYKDKAKKLEAEVRREINNEKAEFLTLLELIDNVQRLGLGYRFESDIRGALDRFVSSGGFDAVTKTSLHGTALSFRLLRQHGFEVSQEAFSGFKDQNGNFLENLKEDIKAILSLYEASFLALEGENILDEAKVFAISHLKELSEEKIGKELAEQVNHALELPLHRRTQRLEAVWSIEAYRKKEDANQVLLELAILDYNMIQSVYQRDLRETSRWWRRVGLATKLHFARDRLIESFYWAVGVAFEPQYSDCRNSVAKMFSFVTIIRDIYDVYGTLDELELFTDAVERWDVNAINDLPDYMKLCFLALYNTINEIAYDNLKDKGENILPYLTKAWADLCNAFLQEAKWLYNKSTPTFDDYFGNAWKSSSGPLQLVFAYFAVVQNIKKEEIENLQKYHDTISRPSHIFRLCNDLASASAEIARGETANSVSCYMRTKGISEELATESVMNLIDETWKKMNKEKLGGSLFAKPFVETAINLARQSHCTYHNGDAHTSPDELTRKRVLSVITEPILPFER
B2: D345S: P. alba IspS variant (protein, UniProt Q50L36 38-595, looked up, variant D345S)
Isoprene synthase, …: B1 Isoprene synthase, … with R308S
B3: D345Q: P. alba IspS variant (protein, UniProt Q50L36 38-595, looked up, variant D345Q)
Isoprene synthase, …: B1 Isoprene synthase, … with R308Q
B4: D345C: P. alba IspS variant (protein, UniProt Q50L36 38-595, looked up, variant D345C)
Isoprene synthase, …: B1 Isoprene synthase, … with R308C
B5: D345A: P. alba IspS variant (protein, UniProt Q50L36 38-595, looked up, variant D345A)
Isoprene synthase, …: B1 Isoprene synthase, … with R308A
B6: D345Y: P. alba IspS variant (protein, UniProt Q50L36 38-595, looked up, variant D345Y)
Isoprene synthase, …: B1 Isoprene synthase, … with R308Y
B7: D345K: P. alba IspS variant (protein, UniProt Q50L36 38-595, looked up, variant D345K)
Isoprene synthase, …: B1 Isoprene synthase, … with R308K
B8: L469L: SEL member with the wild type residue at site 469 (wild type codon substituted) (protein, UniProt Q50L36 38-595, looked up)
Isoprene synthase, …: B1 Isoprene synthase, … with R308D
B9: D345T: P. alba IspS variant (protein, UniProt Q50L36 38-595, looked up, variant D345T)
Isoprene synthase, …: B1 Isoprene synthase, … with R308T
B10: D345W: P. alba IspS variant (protein, UniProt Q50L36 38-595, looked up, variant D345W)
Isoprene synthase, …: B1 Isoprene synthase, … with R308W
B11: D345I: P. alba IspS variant (protein, UniProt Q50L36 38-595, looked up, variant D345I)
Isoprene synthase, …: B1 Isoprene synthase, … with R308I
B12: D345M: P. alba IspS variant (protein, UniProt Q50L36 38-595, looked up, variant D345M)
Isoprene synthase, …: B1 Isoprene synthase, … with R308M
B13: D345P: P. alba IspS variant (protein, UniProt Q50L36 38-595, looked up, variant D345P)
Isoprene synthase, …: B1 Isoprene synthase, … with R308P
B14: H515H: SEL member with the wild type residue at site 515 (wild type codon substituted) (protein, UniProt Q50L36 38-595, looked up)
Isoprene synthase, …: B1 Isoprene synthase, … with R308D
B15: D345E: P. alba IspS variant (protein, UniProt Q50L36 38-595, looked up, variant D345E)
Isoprene synthase, …: B1 Isoprene synthase, … with R308E
B16: D345N: P. alba IspS variant (protein, UniProt Q50L36 38-595, looked up, variant D345N)
Isoprene synthase, …: B1 Isoprene synthase, … with R308N
B17: D345L: P. alba IspS variant (protein, UniProt Q50L36 38-595, looked up, variant D345L)
Isoprene synthase, …: B1 Isoprene synthase, … with R308L
B18: D345G: P. alba IspS variant (protein, UniProt Q50L36 38-595, looked up, variant D345G)
Isoprene synthase, …: B1 Isoprene synthase, … with R308G
B19: D345V: P. alba IspS variant (protein, UniProt Q50L36 38-595, looked up, variant D345V)
Isoprene synthase, …: B1 Isoprene synthase, … with R308V

Positions count from the first letter of the chain named. Names and notes keep the numbering of the source.

This data set can be described thus: DMAPP assay of site evaluation library (SEL) lysates with ELISA protein quantitation: specific activity ranked as performance index. The format is biochemical. As to conditions: primary SEL screen; activity on DMAPP per unit weight relative to the parental molecule (parent = 1). The method, then: 1. Prepared Patch Plates from Glycerol Stock Plates. Using a V&S 96 pin Replication Tool, cultures were patched onto a LB Agar 35 CMP/50 Kan large patch plates from overnight glycerol stock plates. Plates were incubated at 30° C. overnight for 20 to 24 hr. Cultures can be stored at 4° C. for up to a week.
2. Prepared Overnight Growth Plates. 500 mL of LB 35 CMP/50 Kan media were prepared. 300 μL/well of LB 35 CMP/50 Kan media were dispensed into deep 96 well plates (VWR). Using a V&S Replication Tool, the patch inoculum was transferred into deep 96 well plate by touching the tool pins to respective patch and using a circular motion to coat the pins with inoculum. The media was inoculated by dipping the tool then shaking the pin within the well. The overnight growth plates were sealed using a Breathe-Easier Sealing Membrane (Diversified Biotech). The plates were incubated in a Vertiga Shaking Incubator at 30° C. with shaking at 800 rpm overnight for 16 to 18 hr.
3. Prepared Day Growth Plate. Deep 96 well plates were prepared by dispensing 588 μL/well of LB 35 CMP/50 Kan media. Overnight growth plates were removed from the incubator. Overnight cultures were diluted 50-fold and 12 μL of overnight culture were transferred to day growth plates containing 588 μL/well of LB media containing antiobiotics. Overnight growth plates were sealed with new Breathe-Easier Sealing Membranes. Cultures were incubated at 30° C. and 800 rpm for 2.5 hr. Frozen 12 mM IPTG (Sigma) vials were removed from −20° C. and placed in a hood to thaw.
4. OD600 Plate Read of Overnight, Induction, and Harvest. 150 μL 1×PBS were dispensed into 96 well Costar Read Plates (#9017). 50 μL of culture samples were transferred to Read Plates. The OD600 reading was recorded using a Spectramax Plate Reader (Molecular Devices).
5. Induction. Electronic multi-channel pipettors were prepared to dispense 4×20 μL/well of IPTG (if 4× replicates). The multi-dispense option in the electronic pipettor was adjusted if more replicates was necessary. Thawed 12 mM IPTG was poured into 50 mL or 100 mL sterile reservoirs. 20 μL/well of IPTG into each 600 μL/well culture. Overnight growth plates were resealed. Cultures were incubated at 30° C. and 800 rpm for 4 hr. OD600 readings of plates were recorded according instructions above.
6. Harvest. 400 μL of induced culture were transferred to 800 μL Grenier storage plates. Plates were centrifuged at 3300 rpm for 20 min at 2° to 8° C. in a low speed benchtop centrifuge. Supernatants were discarded, pellets should stay in the conical bottom well. Residual supernatants were slapped out onto a paper towel on the benchtop. Plates were sealed with an aluminum foil membrane (Beckman-Coulter). Plates were covered with a plastic plate lid if available. Storage plates were labeled accordingly and stored frozen at −80° C.
Plates containing induced cell pellets were removed from the −80° C. freezer and allowed to thaw on the benchtop for 30 minutes prior to lysis. 200 μl of lysis buffer (50 mM Tris pH 8, 25 mM MgCl2, 74 μg/ml DNase I, 250 U/ml lysozyme, 0.1% Tween 20, 0.5 mM PMSF) was added to each pellet, and plates were incubated on an Eppendorf Thermomixer at 25° C. for 30 minutes at 1200 rpm. After lysis, plates were centrifuged at 3450 rpm for 15 minutes at 4° C. Supernatants were then removed and diluted 10-fold prior to DMAPP assay. 80 μl of the diluted supernatant was added to 20 μl of the DMAPP working stock (20 mM DMAPP in 0.1 M Phosphate Buffer pH 8.2, DMAPP triammonium salt, Cayman chemicals) in a Zinsser glass block. Blocks were then sealed with aluminum sealing membranes, and incubated in Thermomixers at 25° C. for 30 minutes at 450 rpm. Reactions were stopped by incubating blocks on Thermomixers at 70° C. for 12 minutes at 450 rpm. GC-MS was then used for headspace measurements to calculate the amount of isoprene produced by each lysates.
Headspace Assay. […]
In the case of B1, the performance index was found to be 0.40.

As to B2, the performance index is reported as 0.41.

Regarding B3, the performance index came out at 0.56.

On to B4, for which the performance index turned out to be 0.43.

With B5, the performance index is given as 0.50.

Consider B6, for which the performance index was determined as 0.84.

With B7, the performance index was found to be 0.69.

For the molecule B8, the performance index is on record as 0.96.

Take B9: the performance index is recorded as 0.56.

As for B10, the performance index stood at 0.46.

Consider B11, for which the performance index amounted to 0.73.

In the case of B12, the performance index was determined as 0.43.

For the molecule B13, the performance index is listed as 0.35.

Consider B14, for which the performance index was 0.81.

For the molecule B15, the performance index is given as 0.61.

For the molecule B16, the performance index is 0.58.

Take B17: the performance index was determined as 0.65.

With B18, the performance index was determined as 0.55.

Take B19: the performance index amounted to 0.51.
